Consider one molecule from paper PMC7044312, “NMT1 and NMT2 are lysine myristoyltransferases regulating the ARF6 GTPase cycle” (Nature Communications, 2020).

No end group written: not given here.

The target in the assay is T1, NMT1 (115–496), NMT catalytic domain (human, UniProt P30419 115-496).
T1 construct: human N-myristoyltransferase 1, catalytic domain, residues 115-496; Crystallised with myristoyl-CoA; also called N-myristoyltransferase 1; source: E. coli BL21, purified (Ni-NTA, PreScission cleavage, Superdex 75)
T1 sequence (looked up): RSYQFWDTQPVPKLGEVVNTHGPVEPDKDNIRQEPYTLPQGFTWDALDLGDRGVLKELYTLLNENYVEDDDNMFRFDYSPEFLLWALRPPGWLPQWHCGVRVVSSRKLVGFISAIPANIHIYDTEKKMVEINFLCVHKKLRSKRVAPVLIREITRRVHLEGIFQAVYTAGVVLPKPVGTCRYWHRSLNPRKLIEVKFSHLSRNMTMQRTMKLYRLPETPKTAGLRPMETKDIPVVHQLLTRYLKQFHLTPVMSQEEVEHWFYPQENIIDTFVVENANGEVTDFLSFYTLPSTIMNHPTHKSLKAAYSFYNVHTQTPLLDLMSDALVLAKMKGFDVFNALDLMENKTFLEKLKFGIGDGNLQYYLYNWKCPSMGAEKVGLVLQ
The assay is described as follows: crystal structure; NMT1 7.5 mg/ml in 25 mM Tris-HCl pH 7.5, 120 mM NaCl, with 0.3 mM myristoyl-CoA and 0.3 mM AcKVLSKIF; well 18% PEG 8000, 100 mM NaCl, 100 mM sodium citrate pH 5.6, 100 mM MgCl2. As to conditions: both partners purified.

B1: Ac-KVLSKIF peptide (peptide)
peptide: Ac-KVLSKIF
modifications: also: myristoyl on Lys3 side chain (residue 3 is L), formed in crystal
notes: derived from the N-terminus of ARF6, G2 deleted; also called acetyl-KVLSKIF; myristoyl-AcKVLSKIF; source: synthetic peptide (synthesized in-house)
On to B1, for which the binding result is on record as “binds”.
